Literature values as cited in publication PMC10357296.

Target: IL-18 (Homo sapiens) (UniProt Q14116)
Sequence (Q14116 37-193): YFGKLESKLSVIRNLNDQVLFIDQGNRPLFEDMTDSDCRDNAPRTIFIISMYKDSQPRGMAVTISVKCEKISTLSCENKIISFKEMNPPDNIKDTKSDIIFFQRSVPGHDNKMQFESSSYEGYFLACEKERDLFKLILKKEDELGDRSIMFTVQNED

Sequence of IL-18BP (O95998 31-194): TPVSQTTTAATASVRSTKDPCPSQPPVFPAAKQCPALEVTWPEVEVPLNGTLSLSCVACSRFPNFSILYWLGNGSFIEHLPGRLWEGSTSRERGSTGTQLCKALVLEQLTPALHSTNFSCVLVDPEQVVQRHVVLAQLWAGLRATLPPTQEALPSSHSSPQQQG

For IL-18BP (from UniProt O95998), the Kd is listed as less than 1 nM.
